# Laboratory results published in publication PMC9411592, “Specificity of TGF-β1 signal designated by LRRC33 and integrin αVβ8” (Nature Communications, 2022).
# Columns and labels:
# [1] = biological target: T1, L-TGF-β1 C4S/R249A (the 'WT' of the SPR assay) (human); assay: SPR; Biacore T200, 25 °C; L-TGF-β1 (C4S/R249A, or + RGEGATG) immobilised on a CM5 chip by amine coupling; integrin headpieces injected at 20 μl/min in 20 mM HEPES pH 7.5, 150 mM NaCl, 1 mM MgCl2, 1 mM CaCl2; 1:1 Langmuir model; conditions: both partners purified
# T1 construct: latent TGF-β1, human, with C4S and R249A; numbers count on: the protein without its signal peptide; The methods describe L-TGF-β1 alone as N-terminally His6-tagged, made in HEK293S GnTI- cells, tag cleaved with PreScission; also called WT (C4S/R249A) L-TGF-β1; mutant L-TGF-β1 (C4S/R249A); source: purified
# [2] = biological target: L-TGF-β1/LRRC33 complex (L-TGF-β1 dimer disulfide-linked to one LRRC33 ectodomain) (human, N-linked glycosylation | N-linked glycosylation); assay: cryo-EM structure; purified αVβ8 headpiece and purified L-TGF-β1/LRRC33 mixed on ice at a molar ratio of 2.2:1 with 1 mM MnCl2 and 0.2 mM CaCl2, then SEC; 2:2:1 map at 5.19 Å, masked 1:2 αVβ8/L-TGF-β1 at 3.24 Å; conditions: both partners purified
# Sequence of L-TGF-β1/LRRC33 complex (L-TGF-β1 dimer disulfide-linked to one LRRC33 ectodomain) (human, N-linked glycosylation | N-linked glycosylation) (chain, as listed by the source, chain 1 of 2): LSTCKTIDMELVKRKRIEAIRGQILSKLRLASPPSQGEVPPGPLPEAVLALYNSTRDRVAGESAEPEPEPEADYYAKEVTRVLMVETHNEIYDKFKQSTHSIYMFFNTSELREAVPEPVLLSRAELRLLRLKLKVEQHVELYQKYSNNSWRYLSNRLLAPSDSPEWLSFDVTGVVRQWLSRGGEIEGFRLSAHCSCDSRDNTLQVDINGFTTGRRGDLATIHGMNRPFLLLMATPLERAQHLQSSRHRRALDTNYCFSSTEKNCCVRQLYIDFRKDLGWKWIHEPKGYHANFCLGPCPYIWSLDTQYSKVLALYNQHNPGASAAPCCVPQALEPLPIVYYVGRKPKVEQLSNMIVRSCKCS
# Sequence of L-TGF-β1/LRRC33 complex (L-TGF-β1 dimer disulfide-linked to one LRRC33 ectodomain) (human, N-linked glycosylation | N-linked glycosylation) (chain, as listed by the source, chain 2 of 2): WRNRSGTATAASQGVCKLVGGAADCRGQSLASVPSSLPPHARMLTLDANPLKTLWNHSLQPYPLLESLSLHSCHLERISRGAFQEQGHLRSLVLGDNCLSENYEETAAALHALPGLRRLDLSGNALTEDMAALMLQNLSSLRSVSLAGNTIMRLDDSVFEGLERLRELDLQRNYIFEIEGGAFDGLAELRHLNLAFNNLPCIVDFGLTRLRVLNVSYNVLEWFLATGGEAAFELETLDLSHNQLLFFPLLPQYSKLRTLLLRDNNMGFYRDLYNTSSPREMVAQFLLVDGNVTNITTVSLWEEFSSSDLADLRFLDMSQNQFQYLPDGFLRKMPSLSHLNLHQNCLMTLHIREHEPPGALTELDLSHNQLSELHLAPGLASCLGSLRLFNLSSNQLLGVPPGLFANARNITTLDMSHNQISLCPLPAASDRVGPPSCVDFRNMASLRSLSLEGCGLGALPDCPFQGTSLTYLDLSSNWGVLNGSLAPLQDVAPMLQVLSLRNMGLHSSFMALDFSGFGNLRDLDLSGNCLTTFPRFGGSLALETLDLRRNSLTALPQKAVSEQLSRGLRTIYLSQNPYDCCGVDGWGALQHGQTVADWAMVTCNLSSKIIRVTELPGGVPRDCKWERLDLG
# T1 sequence (P01137 other isoform, or with tags, fused parts or gaps R249A R249A): as the sequence (chain, as listed by the source, chain 1 of 2) above, with C4S, R249A counted along it
Kd [1] [µM],stoichiometry N [2],Binder
0.111,2 αVβ8 per L-TGF-β1 dimer/LRRC33 complex,"integrin αVβ8 headpiece (αV residues 1-594, β8 residues 1-456) (complex) chain 1: FNLDVDSPAEYSGPEGSYFGFAVDFFVPSASSRMFLLVGAPKANTTQPGIVEGGQVLKCDWSSTRRCQPIEFDATGNRDYAKDDPLEFKSHQWFGASVRSKQDKILACAPLYHWRTEMKQEREPVGTCFLQDGTKTVEYAPCRSQDIDADGQGFCQGGFSIDFTKADRVLLGGPGSFYWQGQLISDQVAEIVSKYDPNVYSIKYNNQLATRTAQAIFDDSYLGYSVAVGDFNGDGIDDFVSGVPRAARTLGMVYIYDGKNMSSLYNFTGEQMAAYFGFSVAATDINGDDYADVFIGAPLFMDRGSDGKLQEVGQVSVSLQRASGDFQTTKLNGFEVFARFGSAIAPLGDLDQDGFNDIAIAAPYGGEDKKGIVYIFNGRSTGLNAVPSQILEGQWAARSGCPPSFGYSMKGATDIDKNGYPDLIVGAFGVDRAILYRARPVITVNAGLEVYPSILNQDNKTCSLPGTALKVSCFNVRFCLKADGKGVLPRKLNFQVELLLDKLKQKGAIRRALFLYSRSPSHSKNMTISRGGLMQCEELIAYLRDESEFRDKLTPITIFMEYRLDYRTAADTTGLQPILNQFTPANISRQAHILLD chain 2: EDNRCASSNAASCARCLALGPECGWCVQEDFISGGSRSERCDIVSNLISKGCSVDSIEYPSVHVIIPTENEINTQVTPGEVSIQLRPGAEANFMLKVHPLKKYPVDLYYLVDVSASMHNNIEKLNSVGNDLSRKMAFFSRDFRLGFGSYVDKTVSPYISIHPERIHNQCSDYNLDCMPPHGYIHVLSLTENITEFEKAVHRQKISGNIDTPEGGFDAMLQAAVCESHIGWRKEAKRLLLVMTDQTSHLALDSKLAGIVCPNDGNCHLKNNVYVKSTTMEHPSLGQLSEKLIDNNINVIFAVQGKQFHWYKDLLPLLPGTIAGEIESKAANLNNLVVEAYQKLISEVKVQVENQVQGIYFNITAICPDGSRKPGMEGCRNVTSNDEVLFNVTVTMKKCDVTGGKNYAIIKPIGFNETAKIHIHRNCSCQCEDNRGPKGKCVDETFLDSKCFQCDENK"
0.0469,,integrin αVβ6-8DLL headpiece (the disulfide-linked loop of β6 substituted by that of β8) (complex) chain 1: FNLDVDSPAEYSGPEGSYFGFAVDFFVPSASSRMFLLVGAPKANTTQPGIVEGGQVLKCDWSSTRRCQPIEFDATGNRDYAKDDPLEFKSHQWFGASVRSKQDKILACAPLYHWRTEMKQEREPVGTCFLQDGTKTVEYAPCRSQDIDADGQGFCQGGFSIDFTKADRVLLGGPGSFYWQGQLISDQVAEIVSKYDPNVYSIKYNNQLATRTAQAIFDDSYLGYSVAVGDFNGDGIDDFVSGVPRAARTLGMVYIYDGKNMSSLYNFTGEQMAAYFGFSVAATDINGDDYADVFIGAPLFMDRGSDGKLQEVGQVSVSLQRASGDFQTTKLNGFEVFARFGSAIAPLGDLDQDGFNDIAIAAPYGGEDKKGIVYIFNGRSTGLNAVPSQILEGQWAARSGCPPSFGYSMKGATDIDKNGYPDLIVGAFGVDRAILYRARPVITVNAGLEVYPSILNQDNKTCSLPGTALKVSCFNVRFCLKADGKGVLPRKLNFQVELLLDKLKQKGAIRRALFLYSRSPSHSKNMTISRGGLMQCEELIAYLRDESEFRDKLTPITIFMEYRLDYRTAADTTGLQPILNQFTPANISRQAHILLD chain 2: HVQGGCALGGAETCEDCLLIGPQCAWCAQENFTHPSGVGERCDTPANLLAKGCQLNFIENPVSQVEILKNKPLSVGRQKNSSDIVQIAPQSLILKLRPGGAQTLQVHVRQTEDYPVDLYYLMDLSASMDDDLNTIKELGSRLSKEMSKLTSNFRLGFGSFVEKPVSPFVKTTPEEIANPCSDYNLDCLPTFGFKHILPLTNDAERFNEIVKNQKISANIDTPEGGFDAIMQAAVCKEKIGWRNDSLHLLVFVSDADSHFGMDSKLAGIVCPNDGLCHLDSKNEYSMSTVLEYPTIGQLIDKLVQNNVLLIFAVTQEQVHLYENYAKLIPGATVGLLQKDSGNILQLIISAYEELRSEVELEVLGDTEGLNLSFTAICNNGTLFQHQKKCSHMKVGDTASFSVTVNIPHCERRSRHIIIKPVGLGDALELLVSPECNCDCQKEVEVNSSKCHHGNGSFQCGVCACHPGHMGPRCE
0.00218,,"integrin αVβ6 headpiece (αV residues 1-594, β6 residues 1-474) (complex) chain 1: FNLDVDSPAEYSGPEGSYFGFAVDFFVPSASSRMFLLVGAPKANTTQPGIVEGGQVLKCDWSSTRRCQPIEFDATGNRDYAKDDPLEFKSHQWFGASVRSKQDKILACAPLYHWRTEMKQEREPVGTCFLQDGTKTVEYAPCRSQDIDADGQGFCQGGFSIDFTKADRVLLGGPGSFYWQGQLISDQVAEIVSKYDPNVYSIKYNNQLATRTAQAIFDDSYLGYSVAVGDFNGDGIDDFVSGVPRAARTLGMVYIYDGKNMSSLYNFTGEQMAAYFGFSVAATDINGDDYADVFIGAPLFMDRGSDGKLQEVGQVSVSLQRASGDFQTTKLNGFEVFARFGSAIAPLGDLDQDGFNDIAIAAPYGGEDKKGIVYIFNGRSTGLNAVPSQILEGQWAARSGCPPSFGYSMKGATDIDKNGYPDLIVGAFGVDRAILYRARPVITVNAGLEVYPSILNQDNKTCSLPGTALKVSCFNVRFCLKADGKGVLPRKLNFQVELLLDKLKQKGAIRRALFLYSRSPSHSKNMTISRGGLMQCEELIAYLRDESEFRDKLTPITIFMEYRLDYRTAADTTGLQPILNQFTPANISRQAHILLD chain 2: HVQGGCALGGAETCEDCLLIGPQCAWCAQENFTHPSGVGERCDTPANLLAKGCQLNFIENPVSQVEILKNKPLSVGRQKNSSDIVQIAPQSLILKLRPGGAQTLQVHVRQTEDYPVDLYYLMDLSASMDDDLNTIKELGSRLSKEMSKLTSNFRLGFGSFVEKPVSPFVKTTPEEIANPCSSIPYFCLPTFGFKHILPLTNDAERFNEIVKNQKISANIDTPEGGFDAIMQAAVCKEKIGWRNDSLHLLVFVSDADSHFGMDSKLAGIVCPNDGLCHLDSKNEYSMSTVLEYPTIGQLIDKLVQNNVLLIFAVTQEQVHLYENYAKLIPGATVGLLQKDSGNILQLIISAYEELRSEVELEVLGDTEGLNLSFTAICNNGTLFQHQKKCSHMKVGDTASFSVTVNIPHCERRSRHIIIKPVGLGDALELLVSPECNCDCQKEVEVNSSKCHHGNGSFQCGVCACHPGHMGPRCE"
